Assay results from doi:10.1101/634550.

B1: BADC2 AW box (-102/-75) (dsDNA)
DNA 1: TCGTCTTCCTCGTTCGTATCGTTCACTC
DNA 2: GAGTGAACGATACGAACGAGGAAGACGA
B2: BADC3 AW box (-94/-67) (dsDNA)
DNA 1: GTTGTGTCCTCGTTCATATCGTTATCGT
DNA 2: ACGATAACGATATGAACGAGGACACAAC
B3: BCCP2 AW box1 (-36/-8) (dsDNA)
DNA 1: TGGGTTTCTTCGTAAGCATCGAAATCAG
DNA 2: CTGATTTCGATGCTTACGAAGAAACCCA
B4: BCCP2 AW box2 (-143/-115) (dsDNA)
DNA 1: CCTACTTCCTCGGTTTCATCGTCCACTG
DNA 2: CAGTGGACGATGAAACCGAGGAAGTAGG
B5: Neg.C (dsDNA)
DNA 1: TGTTACAATCTAGTTACTATTCAGGGTA
DNA 2: TACCCTGAATAGTAACTAGATTGTAACA
B6: BADC1m3 (dsDNA)
DNA 1: CCTTCTTCTTTGGTGCCTCCGTCCGCCG
DNA 2: CGGCGGACGGAGGCACCAAAGAAGAAGG
B7: BADC1 AW box (-169/-142) (dsDNA)
DNA 1: CCTTCTTCTTTGGTAACTCCGTCCGCCG
DNA 2: CGGCGGACGGAGTTACCAAAGAAGAAGG
B8: BADC2m3 (dsDNA)
DNA 1: TCGTCTTCCTCGTTCACATCGTTCACTC
DNA 2: GAGTGAACGATGTGAACGAGGAAGACGA
B9: BCCP1 AW box (-67/-40) (dsDNA)
DNA 1: TTGTGCTCTTTGGTTTCATCGAGAGAGA
DNA 2: TCTCTCTCGATGAAACCAAAGAGCACAA
B10: BADC3m3 (dsDNA)
DNA 1: GTTGTGTCCTCGTTTACATCGTTATCGT
DNA 2: ACGATAACGATGTAAACGAGGACACAAC

The binders below were run against GFP-WRI1(58-240), WRINKLED1 DNA-binding domain (UniProt Q6X5Y6 58-240) (assay: MST).
Chain of GFP-WRI1(58-240), WRINKLED1 DNA-binding domain (Q6X5Y6 58-240): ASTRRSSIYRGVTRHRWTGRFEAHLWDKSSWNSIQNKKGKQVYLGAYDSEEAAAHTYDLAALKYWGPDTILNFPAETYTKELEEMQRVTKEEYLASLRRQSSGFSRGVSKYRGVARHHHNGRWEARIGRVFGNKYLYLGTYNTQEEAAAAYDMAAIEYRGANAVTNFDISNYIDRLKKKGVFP
For B1, the Kd was 2.73 ± 0.72 nM. In the case of B2, the Kd is reported as 5.24 ± 2.59 nM. B3 showed a Kd of 0.65 ± 0.39 nM. Work on B4 yielded a Kd of 6.68 ± 0.94 nM. B5: no binding. B6 gave a Kd of 70.7 ± 27.8 nM. B7 gave a Kd of 0.27 ± 0.27 nM. Binder B8 has a Kd of 149 ± 139 nM. B9 gave a Kd of 23.9 ± 4.42 nM. B10 showed a Kd of 22.9 ± 2.94 nM.
